This is an account of results in article doi:10.1101/2024.07.29.605612 (bioRxiv, 2024).

This experiment has as its target ribosomal protein uS14 (Escherichia coli (endogenous in K-12 …, UniProt P0AG59 1-101)). The experiment can be described thus: cryo-EM structure.

B1: catalytically inactive mutant of RNase I (H55F/H133F) (enzyme)
chain: LALQAKQYGDFDRYVLALSWQTGFCQSQHDRNRNERDECRLQTETTNKADFLTVFGLWPGLPKSVAARGVDERRWMRFGCATRPIPNLPEARASRMCSSPETGLSLETAAKLSEVMPGAGGRSCLERYEYAKFGACFGFDPDAYFGTMVRLNQEIKESEAGKFLADNYGKTVSRRDFDAAFAKSWGKENVKAVKLTCQGNPAYLTEIQISIKADAINAPLSANSFLPQPHPGNCGKTFVIDKAGY
B1: the binding result was “binds”.
